# Data from PMC2444025.
# Read-outs that look alike come from different tables or passages of the source.
# Legend:
# [1] = test system: Immunoglobulin E (IgE), human myeloma (human); details: in solution; full-length clone; Blocking buffer: 10 mg/mL casein, 0.1% Tween-20, 8.1 mM Na2HPO4 (printed N2HPO4), 1.1 mM KH2PO4, 2.7 mM KCl, 137 mM NaCl (138 mM also listed), 1 mM MgCl2, pH 7.; cited from earlier work
# [2] = test system: Immunoglobulin E (IgE), human myeloma (human); experiment: DNA microarray fluorescence; details: Blocking buffer: 10 mg/mL casein, 0.1% Tween-20, 8.1 mM Na2HPO4 (printed N2HPO4), 1.1 mM KH2PO4, 2.7 mM KCl, 137 mM NaCl (138 mM also listed), 1 mM MgCl2, pH 7.
sequence,measurement,setting,value
CTACCTACGATCTGACTAGCCAATGAGTGTACCACGTTTATCCGTCCCTCCTAGTGGCGTGCTTACTCTCATGTAGTTCC [D 17.0],Kd,[1],9 nM
same,Kd,[2],> 100 nM
